# Reference: patent US20260240884A1, “MIXTURE OF HUMAN MILK OLIGOSACCHARIDES” (N.V. Nutricia, priority 2023, published 2026)
# Test system: IL-8 secretion of HT-29 cells
# Test: IL-8 secretion and viability of HT-29 cells pre-incubated with test compounds and challenged with Lyovec-complexed Poly I:C
# Type: cell-based, Human
molecule,measurement,setting,value
"Lactoferrin: lactoferrin, control test compound (protein, UniProt P02788 20-710, looked up) Lactotransferrin: GRRRSVQWCAVSQPEATKCFQWQRNMRKVRGPPVSCIKRDSPIQCIQAIAENRADAVTLDGGFIYEAGLAPYKLRPVAAEVYGTERQPRTHYYAVAVVKKGGSFQLNELQGLKSCHTGLRRTAGWNVPIGTLRPFLNWTGPPEPIEAAVARFFSASCVPGADKGQFPNLCRLCAGTGENKCAFSSQEPYFSYSGAFKCLRDGAGDVAFIRESTVFEDLSDEAERDEYELLCPDNTRKPVDKFKDCHLARVPSHAVVARSVNGKEDAIWNLLRQAQEKFGKDKSPKFQLFGSPSGQKDLLFKDSAIGFSRVPPRIDSGLYLGSGYFTAIQNLRKSEEEVAARRARVVWCAVGEQELRKCNQWSGLSEGSVTCSSASTTEDCIALVLKGEADAMSLDGGYVYTAGKCGLVPVLAENYKSQQSSDPDPNCVDRPVEGYLAVAVVRRSDTSLTWNSVKGKKSCHTAVDRTAGWNIPMGLLFNQTGSCKFDEYFSQSCAPGSDPRSNLCALCIGDEQGENKCVPNSNERYYGYTGAFRCLAENAGDVAFVKDVTVLQNTDGNNNEAWAKDLKLADFALLCLDGKRKPVTEARSCHLAMAPNHAVVSRMDKVERLKQVLLHQQAKFGRNGSDCPDKFCLFQSETKNLLFNDNTECLARLHGKTTYEKYLGPQYVAGITNLKKCSTSPLLEACEFLRK",Mean IL-8 secretion,"0.1% + Poly I:C, Poly I:C alone 21799.28",9201.69 pg/mL
same,Mean IL-8 secretion,"0.1%, no Poly I:C, Medium 359.54",343.19 pg/mL
